# Measurements: patent US11653679B2, “High-purity steviol glycosides” (PureCircle Sdn Bhd, priority 2014, dated 2023)
# Tests used:
# Assay type in all cases: biochemical
# [1] = Activity of in-vivo produced enzymes for transformation of Rebaudioside A (Example 22); details: for Conversion after 45 hrs.: 0.5 mM, in-vivo produced enzyme lysate; for Reb D selectivity: after 45 hrs.
# Procedure: Activity tests were performed at 5 mL scale with 1,000 μL of thawed lysate for the transformation of Rebaudioside A using 0.5 mM of substrate, 2.5 mM of UDP-Glucose and 3 mM MgCl2 in 50 mM Sodium Phosphate buffer at pH 7.2. Samples were taken and analyzed by HPLC.
# (§1) The HPLC assay was performed as described in EXAMPLE 20.
# [2] = Catalytic test Rebaudioside A to Rebaudioside D with in-vitro expressed UDP-glucosyltransferases (Examples 20, 21), HPLC; details: for Conversion RebA to RebD: in-vitro expressed enzyme
# Procedure: The prepared expression medium mix was added to the plasmid solution and the solution was allowed to incubate at 30° C. for 3 hours while mixing the mixture every 45 minutes. 5 μL of the mixture was frozen whereas the remainder was used for the catalytic test for the conversion of Rebaudioside A to Rebaudioside D.
# (§2) 430 μL of a reaction mixture containing 0.5 mM Rebaudioside A, 3 mM MgCl2, 50 mM phosphate buffer (pH7.2) and 2.5 mM UDP-glucose was added to a 1.5 mL sterile microtube. 52 μl of the enzyme expression medium was added and the resulting mixture was allowed to react at 30° C. for 24 hours. 125 μL samples were taken after 2 hours, 16 hours and 24 hours and added to a 115 μL of 60% methanol and 10 μL of 2 N H2SO4. The quenched sample was centrifuged at 18,000 g for 2 minutes at RT. 200 μL was transferred to an HPLC vial and analyzed.
# The HPLC assay was performed as follows:
# as §2, with “μL” for “μl”, “to” for “to an”
# as §1
# [3] = Directed evolution of UGT76G1, Rebaudioside D to Rebaudioside M, round 1 (Example 26); details: 100 μL fresh lysate, 0.5 mM Rebaudioside D, 30° C., pH 7.2
# How it was run: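 Cleared cell lysate (Bugbuster) incubated with 0.5 mM Rebaudioside D, 3 mM MgCl2 and 2.5 mM UDP-glucose in 50 mM phosphate pH 7.2 at 30 °C. Samples at 2, 4, 7 and 24 h analysed by HPLC-CAD for conversion and initial rate.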
# [4] = 0.5 mM Rebaudioside A, 30° C., HPLC
Reb D selectivity [1],Molecule,Conversion after 45 hrs. [1],"Steviol glycoside conversion in reaction mixture, Reb A [2, 4]","Steviol glycoside conversion in reaction mixture, Reb D [2, 4]",Conversion RebA to RebD [2],conversion Reb D to Reb M after 24 h [3],initial rate [3],"Steviol glycoside conversion in reaction mixture, Reb UNK (later identified as reb D2) [2, 4]"
100%,"gi115454819_NP_001051010.1: Os03g0702500 [Oryza sativa Japonica Group], SEQ ID NO:3 (protein, listed as Oryza sativa) MDDAHSSQSPLHVVIFPWLAFGHLLPCLDLAERLAARGHRVSFVSTPRNLARLPPVRPELAELVDLVALPLPRVDGLPDGAEATSDVPFDKFELHRKAFDGLAAPFSAFLDTACAGGKRPDWVLADLMHHWVALASQERGVPCAMILPCSAAVVASSAPPTESSADQREAIVRSMGTAAPSFEAKRATEEFATEGASGVSIMTRYSLTLQRSKLVAMRSCPELEPGAFTILTRFYGKPVVPFGLLPPRPDGARGVSKNGKHDAIMQWLDAQPAKSVVYVALGSEAPMSADLLRELAHGLDLAGTRFLWAMRKPAGVDADSVLPAGFLGRTGERGLVTTRWAPQVSILAHAAVCAFLTHCGWGSVVEGLQFGHPLIMLPILGDQGPNARILEGRKLGVAVPRNDEDGSFDRGGVAGAVRAVVVEEEGKTFFANARKLQEIVADREREERCIDEFVQHLTSWNELKNNSDGQYP",1.1%,96.7 % area,2.1 % area,Active,,,
,"UGT76G1var95: UGT76G1 variant, mutations A33G_I295M_K303G_I335V_A385T (protein, UniProt Q6VAB4 1-458, looked up, variant A33G I295M K303G I335V A385T) UDP-glycosyltransferase 76G1: MENKTETTVRRRRRIILFPVPFQGHINPILQLGNVLYSKGFSITIFHTNFNKPKTSNYPHFTFRFILDNDPQDERISNLPTHGPLAGMRIPIINEHGADELRRELELLMLASEEDEEVSCLITDALWYFAQSVADSLNLRRLVLMTSSLFNFHAHVSLPQFDELGYLDPDDKTRLEEQASGFPMLKVKDIKSAYSNWQILKEILGKMIKQTKASSGVIWNSFKELEESELETVIREIPAPSFLIPLPKHLTASSSSLLDHDRTVFQWLDQQPPSSVLYVSFGSTSEVDEKDFLEMARGLVDSGQSFLWVVRPGFVKGSTWVEPLPDGFLGERGRVVKWVPQQEVLAHGAIGAFWTHSGWNSTLESVCEGVPMIFSDFGLDQPLNTRYMSDVLKVGVYLENGWERGEIANAIRRVMVDEEGEYIRQNARVLKQKADVSLMKGGSSYESLESLVSYISSL",,,,,−1.3%,−1.7E+05 Reb M area/min,
,"UGT76G1var96: UGT76G1 variant, mutations F22L_E229A_L243P_F377C_A385T (protein, UniProt Q6VAB4 1-458, looked up, variant F22L E229A L243P F377C A385T) UDP-glycosyltransferase 76G1: MENKTETTVRRRRRIILFPVPLQGHINPILQLANVLYSKGFSITIFHTNFNKPKTSNYPHFTFRFILDNDPQDERISNLPTHGPLAGMRIPIINEHGADELRRELELLMLASEEDEEVSCLITDALWYFAQSVADSLNLRRLVLMTSSLFNFHAHVSLPQFDELGYLDPDDKTRLEEQASGFPMLKVKDIKSAYSNWQILKEILGKMIKQTKASSGVIWNSFKELEESALETVIREIPAPSFPIPLPKHLTASSSSLLDHDRTVFQWLDQQPPSSVLYVSFGSTSEVDEKDFLEIARGLVDSKQSFLWVVRPGFVKGSTWVEPLPDGFLGERGRIVKWVPQQEVLAHGAIGAFWTHSGWNSTLESVCEGVPMIFSDCGLDQPLNTRYMSDVLKVGVYLENGWERGEIANAIRRVMVDEEGEYIRQNARVLKQKADVSLMKGGSSYESLESLVSYISSL",,,,,1.2%,2.7E+05 Reb M area/min,
,"UGT76G1var6: UGT76G1 variant, mutations Q266S_S357N_I373L (protein, UniProt Q6VAB4 1-458, looked up, variant Q266S S357N I373L) UDP-glycosyltransferase 76G1: MENKTETTVRRRRRIILFPVPFQGHINPILQLANVLYSKGFSITIFHTNFNKPKTSNYPHFTFRFILDNDPQDERISNLPTHGPLAGMRIPIINEHGADELRRELELLMLASEEDEEVSCLITDALWYFAQSVADSLNLRRLVLMTSSLFNFHAHVSLPQFDELGYLDPDDKTRLEEQASGFPMLKVKDIKSAYSNWQILKEILGKMIKQTKASSGVIWNSFKELEESELETVIREIPAPSFLIPLPKHLTASSSSLLDHDRTVFSWLDQQPPSSVLYVSFGSTSEVDEKDFLEIARGLVDSKQSFLWVVRPGFVKGSTWVEPLPDGFLGERGRIVKWVPQQEVLAHGAIGAFWTHNGWNSTLESVCEGVPMLFSDFGLDQPLNARYMSDVLKVGVYLENGWERGEIANAIRRVMVDEEGEYIRQNARVLKQKADVSLMKGGSSYESLESLVSYISSL",,,,,0.5%,1.8E+06 Reb M area/min,
,"EUGT11: putative UDP-glucoronosyl and UDP-glucosyl transferase [Oryza sativa Japonica Group], from WO/2013/022989A2, SEQ ID NO:8 (protein, listed as Oryza sativa) MHVVICPLLAFGHLLPCLDLAQRLACGHRVSFVSTPRNISRLPPVRPSLAPLVSFVALPLPRVEGLPNGAESTHNVPHDRPDMVELHLRAFDGLAAPFSEFLGTACADWVMPTSSAPRQTLSSNIHRNSSRPGTPAPSGRLLCPITPHSNTLERAAEKLVRSSRQNARARSLLAFTSPPLPYRDVFRSLLGLQMGRKQLNIAHETNGRRTGTLPLNLCRWMWKQRRCGKLRPSDVEFNTSRSNEAISPIGASLVNLQSIQSPNPRAVLPIASSGVRAVFIGRARTSTPTPPHAKPARSAAPRAHRPPSSVMDSGYSSSYAAAAGMHVVICPWLAFGHLLPCLDLAQRLASRGHRVSFVSTPRNISRLPPVRPALAPLVAFVALPLPRVEGLPDGAESTNDVPHDRPDMVELHRRAFDGLAAPFSEFLGTACADWVIVDVFHHWAAAAALEHKVPCAMMLLGSAHMIASIADRRLERAETESPAAAGQGRPAAAPTFEVARMKLIRTKGSSGMSLAERFSLTLSRSSLVVGRSCVEFEPETVPLLSTLRGKPITFLGLMPPLHEGRREDGEDATVRWLDAQPAKSVVYVALGSEVPLGVEKVHELALGLELAGTRFLWALRKPTGVSDADLLPAGFEERTRGRGVVATRWVPQMSILAHAAVGAFLTHCGWNSTIEGLMFGHPLIMLPIFGDQGPNARLIEAKNAGLQVARNDGDGSFDREGVAAAIRAVAVEEESSKVFQAKAKKLQEIVADMACHERYIDGFIQQLRSYKD",,,,Active,,,
Reb D Not detected,"gi222619587_EEE55719.1: hypothetical protein OsJ_04191 [Oryza sativa Japonica Group], SEQ ID NO:6 (protein, listed as Oryza sativa) MHVVMLPWLAFGHILPFAEFAKRVARQGHRVTLFSTPRNTRRLIDVPPSLAGRIRVVDIPLPRVEHLPEHAEATIDLPSNDLRPYLRRAYDEAFSRELSRLLQETGPSRPDWVLADYAAYWAPAAASRHGVPCAFLSLFGAAALCFFGPAETLQGRGPYAKTEPAHLTAVPEYVPFPTTVAFRGNEARELFKPSLIPDESGVSESYRFSQSIEGCQLVAVRSNQEFEPEWLELLGELYQKPVIPIGMFPPPPPQDVAGHEETLRWLDRQEPNSVVYAAFGSEVKLTAEQLQRIALGLEASELPFIWAFRAPPDAGDGDGLPGGFKERVNGRGVVCRGWVPQVKFLAHASVGGFLTHAGWNSIAEGLANGVRLVLLPLMFEQGLNARQLAEKKVAVEVARDEDDGSFAANDIVDALRRVMVGEEGDEFGVKVKELAKVFGDDEVNDRYVRDFLKCLSEYKMQRQG",2.9%,92.8 % area,0.14 % area,Active,,,7.0 % area
100%,"gi187373030_ACD03249.1: UDP-glycosyltransferase [Avena strigosa], SEQ ID NO:4 (protein, listed as Avena strigosa) MAVKDEQQSPLHILLFPFLAPGHLIPIADMAALFASRGVRCTILTTPVNAAIIRSAVDRANDAFRGSDCPAIDISVVPFPDVGLPPGVENGNALTSPADRLKFFQAVAELREPFDRFLADNHPDAVVSDSFFHWSTDAAAEHGVPRLGFLGSSMFAGSCNESTLHNNPLETAADDPDALVSLPGLPHRVELRRSQMMDPKKRPDHWALLESVNAADQKSFGEVFNSFHELEPDYVEHYQTTLGRRTWLVGPVALASKDMAGRGSTSARSPDADSCLRWLDTKQPGSVVYVSFGTLIRFSPAELHELARGLDLSGKNFVWVLGRAGPDSSEWMPQGFADLITPRGDRGFIIRGWAPQMLILNHRALGGFVTHCGWNSTLESVSAGVPMVTWPRFADQFQNEKLIVEVLKVGVSIGAKDYGSGIENHDVIRGEVIAESIGKLMGSSEESDAIQRKAKDLGAEARSAVENGGSSYNDVGRLMDELMARRSSVKVGEDIIPTNDGL",0.8%,99.4 % area,0.6 % area,Active,,,
